The results in this text go back to patent US20190112365A1 (EISAI R AND D MANAGEMENT, published 2019).

The target in assay [1] is T1, Human Tau 2N4R, wild type, recombinant full length (human, UniProt P10636 2-758).
T1 construct: Full length 2N4R isoform; monomer in SPR and ELISA; heparin-induced aggregates or seeds in the functional assays; also called Tau441; Tau-441
Description: SPR, streptavidin capture; against ms7G6. The protocol: (§1) 400 μg of each antibody was diluted to 2 mg/mL and buffer-exchanged into 0.1 M sodium bicarbonate, pH 8.3 using 0.5 mL Zeba™ 40 kDa MWCO desalting columns (Thermo). NHS-PEG4-biotin, prepared immediately before use by dissolving in water to a 20 mM final stock concentration, was added to antibodies at a 5:1 molar ratio (biotin:MAb) and conjugated for 1 hr at room temperature. Excess biotin was removed by two sequential buffer exchanges into 1×DPBS using 0.5 mL Zeba™ 40 kDa MWCO desalting columns. For the BIAcore™ assay, antibodies were diluted to 2 μg/mL in PBS-P+/0.2% BSA (the same preparation used for the running buffer), centrifuged at 14,000 g for 5 min at room temperature, and the supernatant transferred to a new tube. Injection time was subsequently determined for each antibody to achieve a capture level of ˜225 RU.
(§2) Biotinylated humanized and mouse mAbs were captured on a streptavidin-coated chip and kₐ, kd, and KD were determined for binding to Tau (Table 11). […] The affinity of 7G6-HCzu8-LCzu6, 7G6-HCzu24-LCzu15, 7G6-HCzu24-LCzu18, 7G6-HCzu25-LCzu15, and 7G6-HCzu25-LCzu18 were all similar.

Assay [2] deals with T1, Human Tau 2N4R, wild type, recombinant …. Description: SPR BIAcore, anti-human capture, monomeric Tau, 1:1 Langmuir. The protocol: (§3) All experiments were performed using a BIAcore™ T-100 instrument (GE Healthcare). 10 μL anti-human IgG (monoclonal mouse anti-human Fc) from human antibody capture kit (GE Healthcare) was diluted to 25 μL/mL in 200 μL final immobilization buffer (10 mM sodium acetate, pH 5.0). The flow rate was set to 5 μL/min, flowpath 1. Fifty μL N-hydroxysuccinamide (NETS) and 50 μL 1-ethyl-3-(3-dimethylaminopropyl) carbidiimide (EDC) were mixed and injected for 420 sec to activate the CM5 chip surface. The diluted antibody was injected for 360 seconds followed by 1 M ethanolamine for 420 seconds. The flowpath was then switched to flowpath 2. A new EDC/NHS mixture was prepared and the procedure was repeated for flow cell 2. The surface was conditioned by 2 injections of 30 sec using flowpath 1, 2 at 30 μL/min of 3M MgCl₂. For the anti-mouse surface, 10 μL anti-mouse IgG (polyclonal rabbit anti-mouse IgG) from mouse antibody capture kit (GE Healthcare) was diluted to 30 μL/mL in 324 μL final immobilization buffer (10 mM sodium acetate, pH 5.0). The flow rate was set to 5 μL/min, flowpath 3. Fifty μL NHS and 50 μL EDC were mixed and injected for 420 sec to activate the chip surface. The diluted antibody was injected for 420 sec. 1 M ethanolamine was injected for 420 sec. Flow path was switched to flowpath 4. A new EDC/NHS mixture was prepared and the procedure was repeated for flow cell 4. The surface was conditioned by 2 injections of 30 sec using flowpath 3, 4 at 30 μL/min of 10 mM glycine, pH 1.7.
Tau binding for humanized mAbs was analyzed by BIAcore™ in two different formats. The first format was performed as above, i.e. mAbs were captured with an immobilized species-specific anti-Fc antibody. […] In the second format, biotinylated mAbs were captured on a streptavidin-coated chip. This latter format allowed direct comparison of Tau binding affinity between humanized and the parental mouse antibody since the capture method was identical.
The final humanized mAbs were analyzed by BIAcore™ to determine the kₐ, kd, and KD for binding to Tau as above (Table 10).

Assay [3] shares this target. Briefly: SPR BIAcore, mAb captured by anti-human IgG, Tau flowed, 1:1 Langmuir. The protocol: as §3
(§4) Binding of humanized and mouse antibodies were analyzed by surface plasmon resonance (BIAcore™) to determine their relative association rates (kₐ), dissociation rates (kd), and equilibrium binding constants (KD). Anti-mouse or anti-human antibodies were immobilized on a CM5 chip and sample mAbs were captured on the chip. 2N4R Tau was flowed over the chip and binding observed. The binding constants kₐ, kd, and KD were determined using a 1:1 Langmuir fitting model.
On the technique in general: Surface plasmon resonance follows binding to a sensor surface in real time, without labels.

The target is the same in assay [4]. Briefly: SPR BIAcore, biotinylated mAb on streptavidin (CAP) chip, single cycle, 1:1 Langmuir. The protocol: as §1, §2
Assay [5] concerns the target T2, HVPGG site of Tau (15-mer array peptides containing HVPGG) (human).
T2 peptide: HVPGG
Briefly: peptide microarray; HVPGG site of the fourth repeat region against HKPGG (repeat region 3). The protocol:
(§5) The diluted antibody was incubated on the chip for 16 hours at 4° C. with shaking at 140 rpm. Primary antibody was removed and the chip was washed in PBS (pH 7.4)/0.05% Tween 20. Wash buffer was removed and goat anti-mouse IgG (H+L) DyLight™680 (1:5000) and an anti-HA tag DyLight™ 800 (1:2000) in the same buffer as the primary antibody was then incubated for 45 minutes at room temperature on the chip. Detection antibody was removed and the chip was washed once again as previously. Fluorescence images were acquired on the LI-COR Odyssey™ Imaging System and the microarray data was finally analyzed using the PepSlide™ Analyser software.

Assay [6] has as its target T2, HVPGG site of Tau (15-mer array …). Description: peptide microarray; HVPGG site of the fourth repeat region against HQPGG (repeat region 1). Here is the method: as §5
Assay [7] shares this target. Briefly: peptide microarray; HVPGG site of the second repeat region against HKPGG (repeat region 3). Here is the method: as §5
Assay [8] shares this target. Description: peptide microarray; HVPGG site of the second repeat region against HQPGG (repeat region 1). Here is the method:
as §5

Assay [9] deals with T1, Human Tau 2N4R, wild type, recombinant …. Briefly: SPR BIAcore, mAb captured by anti-mouse IgG, Tau flowed, 1:1 Langmuir. The protocol: as §3
as §4, with “BIAcore™” for “surface plasmon resonance (BIAcore™)”, “(ka),” for “(kₐ),”, “model. Both 7G6-HCzu12-based mAbs had similar kₐ and kd values (Table 8). However, the kₐ of 7G6-HCzu11 was decreased, though the kd was unaffected. Therefore, human residues in the Vh3 framework impact binding to Tau.” for “model.”

Assay [10] has the same target. The description is as above. Here is the method: as §3
as §4, with “BIAcore™” for “surface plasmon resonance (BIAcore™)”, “(ka),” for “(kₐ),”, “model. Both 7G6-HCzu12-based mAbs had similar kₐ and kd values (Table 8). However, the kₐ of 7G6-HCzu11 was decreased, though the kd was unaffected. Therefore, human residues in the Vh3 framework impact binding to Tau.” for “model.”
This is another data set of the same source.

Residue numbers refer to the chain shown, from its start.

T1 sequence (P10636 other isoform, or with tags, fused parts or gaps limits assumed): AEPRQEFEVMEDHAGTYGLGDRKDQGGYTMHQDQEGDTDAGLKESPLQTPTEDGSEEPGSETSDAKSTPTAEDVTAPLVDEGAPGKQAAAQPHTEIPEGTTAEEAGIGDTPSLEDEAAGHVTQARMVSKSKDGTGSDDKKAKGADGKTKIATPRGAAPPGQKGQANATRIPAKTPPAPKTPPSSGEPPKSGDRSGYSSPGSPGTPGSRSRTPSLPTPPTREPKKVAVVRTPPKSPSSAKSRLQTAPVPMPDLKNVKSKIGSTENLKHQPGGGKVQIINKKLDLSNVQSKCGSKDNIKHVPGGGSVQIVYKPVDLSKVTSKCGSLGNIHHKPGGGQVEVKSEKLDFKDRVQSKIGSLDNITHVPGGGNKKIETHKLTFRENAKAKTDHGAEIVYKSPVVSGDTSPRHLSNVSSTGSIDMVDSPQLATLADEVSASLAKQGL

B1: 7G6-HCzu8-LCzu6 (antibody, human IgG1, kappa, V domains shown)
VH: QVQLVQSGAEVKKPGASVKVSCKASGYTFTTYWITWVRQAPGQGLEWMGDIYPGSSISNYAQKFQGRVTMTRDTSTSTVYMELSSLRSEDTAVYYCAREDGYDAWFAYWGQGTLVTVSS
VL: DVVMTQSPLSLPVTLGQPASISCRSSQSILHSNGNTYLEWYQQRPGQSPRLLISKVSNRFSGVPDRFSGSGSGTDFTLKISRVEAEDVGVYYCFQGSHVPFTFGQGTKLEIKR
modifications: N-terminal pyroglutamic acid
notes: humanized, human IgG1 kappa; also called 7G6-HCzu8-LCzu6-HEK; ATCC PTA-124523
For orientation: Kd means the concentration at which binding is half-saturated. Usually koff stands for the rate constant with which the complex falls apart. The term kon denotes a measure of how fast the partners come together. In the case of B1, the “fold drop in affinity” value in assay [1] was roughly 1.4 fold. Also, the results for the dissociation constant (Kd) in [2], in assay [3] and in [4] were 150 pM, 96.8 pM and 91.5 pM, respectively. Besides, the off-rate (koff) was determined as 0.00022 s⁻¹ in [2], 0.00021 s⁻¹ in [3] and 0.000258 s⁻¹ in assay [4]. The kon in assay [2] was 1.49e+06 M⁻¹ s⁻¹; in assay [3] it was 2.17e+06 M⁻¹ s⁻¹; in assay [4], 2.82e+06 M⁻¹ s⁻¹. In addition, the “fold preference in binding (average signal intensities)” value in [5] is 95 fold; in [6], 99 fold; in [7], 104 fold; in assay [8] it was 108 fold.

B2: 7G6-HCzu24-LCzu15 (antibody, human IgG1, kappa)
heavy: not shown
light: DVQMTQSPSSLSASVGDRVTITCRSSQSILHSNGNTYLEWYQQKPGKAPKLLISKVSNRFSGVPSRFSGSGSGTDFTLTISSLQPEDFATYYCFQGSHVPFTFGQGTKLEIKRTVAAPSVFIFPPSDEQLKSGTASVVCLLNNFYPREAKVQWKVDNALQSGNSQESVTEQDSKDSTYSLSSTLTLSKADYEKHKVYACEVTHQGLSSPVTKSFNRGEC
notes: humanized, human IgG1 kappa
Regarding B2, in assay [1], the “fold drop in affinity” value was roughly 1.4 fold. In addition, in [2], the Kd was 130 pM, the koff came to 0.00011 s⁻¹ and the kon is 809000 M⁻¹ s⁻¹. In [4], the Kd turned out to be 89.8 pM, the koff came out at 0.000487 s⁻¹ and the kon amounted to 5.42e+06 M⁻¹ s⁻¹.

B3: 7G6-HCzu24-LCzu18 (antibody, human IgG1, kappa)
heavy: not shown
light: B2 light with V2I
notes: humanized, human IgG1 kappa
For the molecule B3, the “fold drop in affinity” value in assay [1] is roughly 1.4 fold. For the same molecule, in assay [2], the dissociation constant Kd came to 90 pM, the off-rate (koff) turned out to be 9e-05 s⁻¹ and the on-rate constant (kon) is 948000 M⁻¹ s⁻¹. Besides, in assay [4], the Kd worked out at 79.7 pM, the off-rate constant (koff) worked out at 0.000304 s⁻¹ and the kon stood at 3.81e+06 M⁻¹ s⁻¹.

B4: 7G6-HCzu25-LCzu15 (antibody, human IgG1, kappa)
heavy: not shown
light: B2 light
notes: humanized, human IgG1 kappa
Consider B4, for which the “fold drop in affinity” value in [1] was roughly 1.4 fold. Also, in [2], the Kd was 130 pM, the koff is 0.00013 s⁻¹ and the kon worked out at 985000 M⁻¹ s⁻¹. Also, in assay [4], the Kd came out at 99.8 pM, the off-rate (koff) turned out to be 0.00027 s⁻¹ and the kon came out at 2.71e+06 M⁻¹ s⁻¹.

B5: recombinant ms7G6, mouse IgG2b (antibody, V domains shown)
VH: QVQLLQPGAELVKPGASVIMSCKASGYTFTTYWITWVKQRPGQGLEWIGDIYPGSSICNYNEKFKSKATLTVDTSSSTAYMQLNSLTSEDSAVYYCAREDGYDAWFAYWGQGTLVTVSA
VL: DVLMTQTPLSLPVSLGDQASISCRSSQSILHSNGNTYLEWYLQKPGQSPKLLICKVSNRFSGVPDRFSGSGSGTDFTLKISRVEAEDLGVYYCFQGSHVPFTFGSGTKLEIK
notes: Recombinant material, mouse IgG2b
Consider B5, for which, in [9], the dissociation constant Kd was found to be 4170 pM, the off-rate constant (koff) worked out at 0.00156 s⁻¹ and the kon was 373000 M⁻¹ s⁻¹. Moreover, in [10], the Kd is 4170 pM, the koff worked out at 0.00156 s⁻¹ and the on-rate constant (kon) was 373000 M⁻¹ s⁻¹.

B6: recombinant ms7G6, mouse IgG2a (antibody, V domains shown)
VH: B5 VH
VL: B5 VL
notes: Recombinant material, mouse IgG2a
B6: in assay [9], the Kd came to 2720 pM, the koff was determined as 0.0015 s⁻¹ and the kon worked out at 549000 M⁻¹ s⁻¹. Moreover, in assay [10], the equilibrium dissociation constant (Kd) came to 2720 pM, the koff was 0.0015 s⁻¹ and the association rate constant (kon) was found to be 549000 M⁻¹ s⁻¹.
